Data: patent US20250009913A1, “COMPOUNDS FOR USE IN NON-COVALENT SCAFFOLD AND METHODS RELATED THERETO” (NORTH CAROLINA STATE UNIVERSITY, priority 2023, published 2025)
Like-named read-outs stand apart in the source and are kept apart here.

Columns and labels:
[1] = Fluorescence spectroscopy of aggregation (intensity in PBS vs DMSO); format: physicochemical; settings: 316 nM in PBS; incomplete aggregation
Method: Aggregation of 5′ at low concentrations was analyzed by fluorescence spectroscopy. The ratio of maximum fluorescence intensity of samples in PBS to that of sample in DMSO was plotted against concentration (FIG. 9). The ratio decreased as the concentration increased in the range of 1.0 nM to 316 nM, which implies that 5′ aggregates more in PBS as the concentration increases. Even with the concentration of 316 nM, the sample didn't aggregate completely in PBS and retained ˜30% fluorescence. The long PEG chain in 5′ provides the compound with good hydrophilicity and may contribute to incomplete aggregation. Fluorescence intensity at higher or lower concentrations was not measured due to the detection range of the instrument. The porphyrin-peptide conjugate without PEG chain, 4′, was examined by fluorescence intensity as well. Samples at 31.6 nM, 100 nM, and 316 nM were analyzed and the fluorescence intensity ratio of all samples was below 2%. The results imply that 4′ almost aggregates completely even at a very low concentration.
Fluorescence spectroscopy. Samples were dissolved in PBS and DMSO at different concentrations. The excitation wavelength was 419 nm for all samples in DMSO, 415 nm for 5′ in PBS, and 419 nm for 4′ in PBS. The intensity ratio was calculated with the maximum emission of each sample. […]

[2] = Absorption spectroscopy in PBS or DMSO (solubility / aggregation); format: physicochemical; settings: PBS; absorption spectra 0.1-100 μM; read-out: soluble in PBS with essentially no aggregation or assembly
Method: Samples of 5′ at 1 μM in DMSO or PBS were analyzed by absorption spectroscopy (FIG. 8, panel A). […] In PBS, two broad peaks at 417 nm and 455 nm were observed, indicating aggregation of the sample at 1 μM. Samples of 4′ at 1 μM in DMSO or PBS were also analyzed for comparison (FIG. 8, panel B). The spectrum of the sample in DMSO was identical with 5′, while in PBS the Soret band spilt into 3 broad peaks at 409 nm, 419 nm and 455 nm. The different spectra between 4′ and 5′ might result from different ways of porphyrin stacking, as 4′ doesn't have the long PEG chain in its structure.
Samples of 0.1 μM, 1 μM, 10 μM and 100 μM were analyzed using cuvettes with a pathlength of 10 cm, 1 cm, 0.1 cm and 0.01 cm, respectively. There is only a very slight broadening of the absorption bands at 100 μM, and at all concentrations the general spectroscopic features characteristic of the porphyrin are retained.

[3] = target: T1, alkaline phosphatase (ALP) (Bos taurus, UniProt P19111); assay: Enzymatic cleavage of 5 by ALP monitored by reverse-phase HPLC; format: biochemical, bovine; settings: 200 μM in PBS, 2 U/mL ALP, 37° C., 6-hour incubation
T1 construct: Alkaline phosphatase from bovine intestinal mucosa was purchased from Sigma-Aldrich; purchased Sigma-Aldrich; host or cells: bovine intestinal mucosa (tissue-derived)
T1 sequence (P19111 20-506 limits assumed): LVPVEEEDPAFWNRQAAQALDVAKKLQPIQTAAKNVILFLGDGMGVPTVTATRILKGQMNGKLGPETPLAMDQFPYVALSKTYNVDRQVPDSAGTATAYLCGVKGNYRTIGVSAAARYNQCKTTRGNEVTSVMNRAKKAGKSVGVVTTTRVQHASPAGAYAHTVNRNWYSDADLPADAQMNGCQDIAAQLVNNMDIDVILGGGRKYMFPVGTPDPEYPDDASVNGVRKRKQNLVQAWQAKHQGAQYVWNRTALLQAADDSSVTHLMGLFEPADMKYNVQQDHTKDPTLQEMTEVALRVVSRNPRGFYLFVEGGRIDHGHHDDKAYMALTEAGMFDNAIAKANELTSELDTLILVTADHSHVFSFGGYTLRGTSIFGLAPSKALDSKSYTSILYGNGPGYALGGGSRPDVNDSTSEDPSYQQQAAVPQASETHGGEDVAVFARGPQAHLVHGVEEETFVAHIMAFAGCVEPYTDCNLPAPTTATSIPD
Method: The enzymatic cleavage was monitored with reverse-phase high performance liquid chromatography. A solution of 200 μM 5 in PBS was treated with 2 U/mL ALP and incubated at 37° C. A small part of sample was taken from the reaction at different time points (30 min, 1 h, 2 h, 4 h, 6 h and 8 h) and was analyzed by HPLC (5-95% MeCN/10 mM NH4HCO3 in H2O) (FIG. 7). The 3 peaks in the chromatograph after 30 min of ALP treatment represents compound 5 (peak 1), partially cleaved product (peak 2) and fully cleaved product (peak 3). The reaction almost completes after 6-hour incubation (>95% by integration). The LC trace of the standard dephosphorylated sample 5′ is shown for comparison. Attempts were made to get LC-MS data for 5 but no mass signal was detected. This might result from the poor solubility of 5 in the acidic mobile phase (MeCN/H2O, 0.1% FA).
Reverse phase high performance liquid chromatography. A solution of 200 μM 5 in PBS was treated with 2 U/mL ALP and incubated at 37° C. A small part of sample was taken from the reaction at different time points (30 min, 1 h, 2 h, 4 h, 6 h and 8 h) and was analyzed by RP-HPLC with an Agilent Zorbax SB-C18 column (5 μm, 4.6×150 mm). The sample was run for 15 min with a linear gradient (5-95% MeCN/10 mM NH4HCO3 in H2O) and detected with a diode-array detector at 420 nm.

[4] = target: T1, alkaline phosphatase (ALP); assay: Enzymatic assay of 5 with alkaline phosphatase, aggregation followed by absorption spectroscopy; format: biochemical, bovine
Method: The stock solution of 5 in DMSO was diluted with PBS to prepare sample solutions with different concentrations (0.10 μM, 0.20 μM, 0.50 μM, 1.0 μM, 2.0 μM, and 5.0 μM). Each sample was treated with 2 U/mL of alkaline phosphatase (ALP) and incubated overnight at 37° C. The absorption spectra across the range 300-700 nm, where the porphyrin absorbs strongly, were measured before and after the enzyme treatment for each sample (FIG. 4, panels A-F). For samples with concentration lower than 0.50 μM (FIG. 4, panels A, B), the intensity of the Soret band of 5 at 420 nm decreased after enzyme treatment, yet precipitation or other signs of aggregation were not observed. When the concentration of the sample was equal to or higher than 0.50 μM (FIG. 4, panels C-F), the intensity of the Soret peak at 420 nm decreased and a new peak appeared at 455 nm after the enzyme treatment. The new peak at 455 nm indicates the aggregation of the sample upon the treatment of ALP. The Q band (at ˜550 nm) also underwent a bathochromic shift and broadening, albeit of lesser magnitude than that of the higher-energy Soret band. Compound 5′, which lacks the two phosphoester moieties, is prone to aggregation in PBS, consistent with the observed results for ALP treatment of 5. The change in the color of the sample was also observed. After the overnight incubation, the color of the sample changed from pink to orange.
To confirm that the peak appeared after enzyme treatment was caused by aggregation, DMSO was added to the sample of 5 (5.0 μM in PBS) after enzyme treatment to disaggregate the sample. After adding DMSO to dilute the solution in half, the peak at 455 nm almost disappeared and the intensity of the peak at 420 nm increased. Color changes of the solution were observed during the treatment, with the solution appearing pink initially (indicating a monomeric state), then yellow after treatment with ALP (indicating aggregation), and finally returning to pink after dilution with DMSO, albeit a lighter pink than the initial solution, due to dilution (indicating disaggregation). The result further confirmed that compound 5 aggregates in aqueous solution after the enzyme treatment.
Enzymatic assay. The stock solution of 5 in DMSO (2 mM) was diluted with PBS to prepare sample solutions with different concentrations. The final concentrations of 5 in each sample were 0.20 μM, 0.50 μM, 1.0 μM, 2.0 μM, 5.0 μM and 10 μM, respectively. A solution of alkaline phosphatase from bovine intestinal mucosa (10 μL, 100 U/mL in PBS) was added to each sample solution to reach a final volume of 500 μL (PBS containing 0.5% DMSO). The reaction mixture was incubated overnight at 37° C. Then each sample was analyzed by absorption spectroscopy. Samples without the treatment of ALP were also analyzed to serve as controls.
To confirm the aggregation of the dephosphorylated 5 in PBS, 500 μL of DMSO was added to one of the treated samples (10 μM) and was then analyzed by absorption spectroscopy.

[5] = system: alkaline phosphatase (ALP); settings: 10 μM in PBS, 10 min at 10000 rpm
Method: Samples of 5 (10 μM in PBS) with or without ALP treatment were centrifuged with Amicon centrifugation devices (molecular cutoff 50 kDa). […] Solutions collected in the bottom or top tube for the sample that underwent enzyme treatment were analyzed with absorption spectroscopy (FIG. 5).

Molecule	fluorescence retained in PBS (relative to DMSO) [1] [%]	solubility [2] [µM]	completion of dephosphorylation reaction by HPLC integration [3] [%]	behaviour of activated form at very low concentration ([4]; 0.1 μM)	concentration at which new peak at 455 nm (aggregation) appears after enzyme treatment ([4]; PBS with 0.5% DMSO, 2 U/mL ALP, overnight 37° C.) [nM]	reversibility of aggregation ([4]; after ALP treatment in PBS, upon addition of DMSO)	precipitation after high-speed centrifugation or long-time storage ([4]; after ALP treatment, centrifugation >10000 rpm or storage >1 month)	formation of microcrystals or precipitates upon ALP treatment ([4]; concentration as high as 200 μM)	passage through 50 kDa membrane ([5]; after ALP treatment)	passage through 50 kDa membrane ([5]; without ALP treatment)
PEG24-GffY-OH [Compound 5′]	~30									
COCCOCCOCCOCCOCCOCCOCCOCCOCCOCCOCCOCCOCCOCCOCCOCCOCCOCCOCCOCCOCCOCCOCCOCCn1cc(-c2ccc(-c3c4nc(cc5ccc([nH]5)c(-c5c(OCc6cn(CCC(=O)NCC(=O)N[C@H](Cc7ccccc7)C(=O)N[C@H](Cc7ccccc7)C(=O)N[C@@H](Cc7ccc(OP(=O)(O)O)cc7)C(=O)O)nn6)cccc5OCc5cn(CCC(=O)NCC(=O)N[C@H](Cc6ccccc6)C(=O)N[C@H](Cc6ccccc6)C(=O)N[C@@H](Cc6ccc(OP(=O)(O)O)cc6)C(=O)O)nn5)c5nc(cc6ccc3[nH]6)C=C5)C=C4)cc2)nn1 [Compound 5, PEG24-GffY(p)-OH]		≥ 100	> 95	came out of solution without forming a gel superstructure	≥ 500	reversible	No precipitation or microcrystals were observed	did not form microcrystals or precipitates	didn't pass through the membrane	passed through the 50 kDa membrane
